# In the supplement of paper PMC11246515:
# ± gives the standard deviation of the averaged measurements.
# Test: total protein half-life in vivo (active degradation + dilution); higher = more stable protein
# [1] = E. coli NCM3722 delta-clpP delta-lon delta-hslV, growth: N-lim chemostat, doubling time 6 h
# [2] = E. coli NCM3722 delta-clpP, growth: N-lim chemostat, doubling time 6 h
# [3] = E. coli NCM3722 delta-hslV, growth: N-lim chemostat, doubling time 6 h
# [4] = E. coli NCM3722 delta-lon, growth: N-lim chemostat, doubling time 6 h
# [5] = E. coli NCM3722 delta-smpB, growth: N-lim chemostat, doubling time 6 h
# [6] = wild type E. coli NCM3722, growth: C-lim chemostat, doubling time 3 h
# [7] = wild type E. coli NCM3722, growth: C-lim chemostat, doubling time 6 h
# [8] = wild type E. coli NCM3722, growth: C-lim chemostat, doubling time 12 h
# [9] = wild type E. coli NCM3722, growth: N-lim chemostat, doubling time 6 h
# [10] = wild type E. coli NCM3722, growth: N-lim chemostat, doubling time 12 h
# [11] = wild type E. coli NCM3722, growth: P-lim chemostat, doubling time 6 h
# [12] = wild type E. coli NCM3722, growth: P-lim chemostat, doubling time 12 h
Sequence,total protein half-life in vivo [1],total protein half-life in vivo [2],total protein half-life in vivo [3],total protein half-life in vivo [4],total protein half-life in vivo [5],total protein half-life in vivo [6],total protein half-life in vivo [7],total protein half-life in vivo [8],total protein half-life in vivo [9],total protein half-life in vivo [10],total protein half-life in vivo [11],total protein half-life in vivo [12]
MTDNTRLRIAMQKSGRLSDDSRELLARCGIKINLHTQRLIAMAENMPIDILRVRDDDIPGLVMDGVVDLGIIGENVLEEELLNRRAQGEDPRYFTLRRLDFGGCRLSLATPVDEAWDGPLSLNGKRIATSYPHLLKRYLDQKGISFKSCLLNGSVEVAPRAGLADAICDLVSTGATLEANGLREVEVIYRSKACLIQRDGEMEESKQQLIDKLLTRIQGVIQARESKYIMMHAPTERLDEVIALLPGAERPTILPLAGDQQRVAMHMVSSETLFWETMEKLKALGASSILVLPIEKMME,3.9 ± 1 h,2.97 ± 0.12 h,3.093 ± 0.014 h,5.11 ± 1.9 h,3.38 ± 0.042 h,2.99 ± 0.52 h,4.94 ± 0.53 h,7.58 ± 0.31 h,3.29 ± 0.1 h,4.73 ± 0.14 h,5.32 ± 0.63 h,11.2 ± 0.66 h
MWYQKTLTLSAKSRGFHLVTDEILNQLADMPRVNIGLLHLLLQHTSASLTLNENCDPTVRHDMERFFLRTVPDNGNYEHDYEGADDMPSHIKSSMLGTSLVLPVHKGRIQTGTWQGIWLGEHRIHGGSRRIIATLQGE [P0AF48],4.54 ± 0.35 h,> 8 h,4.19 h,4.31 ± 0.8 h,4.33 ± 0.17 h,2.96 ± 0.08 h,4.74 ± 0.15 h,11.9 ± 1.5 h,3.98 ± 0.048 h,6.66 ± 0.43 h,5.51 ± 0.073 h,11.3 ± 0.81 h
MEQLRAELSHLLGEKLSRIECVNEKADTALWALYDSQGNPMPLMARSFSTPGKARQLAWKTTMLARSGTVRMPTIYGVMTHEEHPGPDVLLLERMRGVSVEAPARTPERWEQLKDQIVEALLAWHRQDSRGCVGAVDNTQENFWPSWYRQHVEVLWTTLNQFNNTGLTMQDKRILFRTRECLPALFEGFNDNCVLIHGNFCLRSMLKDSRSDQLLAMVGPGLMLWAPREYELFRLMDNSLAEDLLWSYLQRAPVAESFIWRRWLYVLWDEVAQLVNTGRFSRRNFDLASKSLLPWLA [P0AB03],5.11 h,4.02 h,2.54 ± 0.47 h,2.51 h,1.57 h,2.16 ± 0.1 h,3.92 ± 0.21 h,6.84 ± 0.48 h,–,–,3.8 h,7.86 h
MAKMRAVDAAMYVLEKEGITTAFGVPGAAINPFYSAMRKHGGIRHILARHVEGASHMAEGYTRATAGNIGVCLGTSGPAGTDMITALYSASADSIPILCITGQAPRARLHKEDFQAVDIEAIAKPVSKMAVTVREAALVPRVLQQAFHLMRSGRPGPVLVDLPFDVQVAEIEFDPDMYEPLPVYKPAASRMQIEKAVEMLIQAERPVIVAGGGVINADAAALLQQFAELTSVPVIPTLMGWGCIPDDHELMAGMVGLQTAHRYGNATLLASDMVFGIGNRFANRHTGSVEKYTEGRKIVHIDIEPTQIGRVLCPDLGIVSDAKAALTLLVEVAQEMQKAGRLPCRKEWVADCQQRKRTLLRKTHFDNVPVKPQRVYEEMNKAFGRDVCYVTTIGLSQIAAAQMLHVFKDRHWINCGQAGPLGWTIPAALGVCAADPKRNVVAISGDFDFQFLIEELAVGAQFNIPYIHVLVNNAYLGLIRQSQRAFDMDYCVQLAFENINSSEVNGYGVDHVKVAEGLGCKAIRVFKPEDIAPAFEQAKALMAQYRVPVVVEVILERVTNISMGSELDNVMEFEDIADNAADAPTETCFMHYE [P0AEP7],5.98 ± 0.97 h,3.5 ± 0.04 h,4.16 ± 0.24 h,3.51 h,3.85 ± 0.4 h,2.87 ± 0.1 h,–,7.8 ± 3.2 h,3.45 h,5.7 ± 0.37 h,5.49 ± 0.69 h,11.9 ± 2 h
MSTTWFVGADWLAEHIDDPEIQIIDARMASPGQEDRNVAQEYLNGHIPGAVFFDIEALSDHTSPLPHMLPRPETFAVAMRELGVNQDKHLIVYDEGNLFSAPRAWWMLRTFGVEKVSILGGGLAGWQRDDLLLEEGAVELPEGEFNAAFNPEAVVKVTDVLLASHENTAQIIDARPAARFNAEVDEPRPGLRRGHIPGALNVPWTELVREGELKTTDELDAIFFGRGVSYDKPIIVSCGSGVTAAVVLLALATLDVPNVKLYDGAWSEWGARADLPVEPVK,4.69 ± 0.49 h,3.98 ± 0.5 h,4.63 ± 0.66 h,6.38 ± 2 h,3.69 ± 0.23 h,3.13 ± 0.094 h,5.74 ± 0.92 h,9.46 ± 0.71 h,4.51 ± 0.59 h,6.87 ± 0.19 h,5.58 ± 0.12 h,11 ± 0.56 h
MTTLAIDIGGTKLAAALIGADGQIRDRRELPTPASQTPEALRDALSALVSPLQAHAQRVAIASTGIIRDGSLLALNPHNLGGLLHFPLVKTLEQLTNLPTIAINDAQAAAWAEFQALDGDITDMVFITVSTGVGGGVVSGCKLLTGPGGLAGHIGHTLADPHGPVCGCGRTGCVEAIASGRGIAAAAQGELAGADAKTIFTRAGQGDEQAQQLIHRSARTLARLIADIKATTDCQCVVVGGSVGLAEGYLALVETYLAQEPAAFHVDLLAAHYRHDAGLLGAALLAQGEKL,4.69 ± 0.65 h,4.78 ± 0.069 h,4.19 ± 0.69 h,3.56 ± 1.9 h,4.85 ± 0.36 h,2.57 ± 0.17 h,5 ± 0.45 h,9.07 ± 0.36 h,5.02 ± 0.21 h,5.13 ± 2.2 h,–,10.5 ± 0.22 h
MYLSKVIIARAWSRDLYQLHQGLWHLFPNRPDAARDFLFHVEKRNTPEGCHVLLQSAQMPVSTAVATVIKTKQVEFQLQVGVPLYFRLRANPIKTILDNQKRLDSKGNIKRCRVPLIKEAEQIAWLQRKLGNAARVEDVHPISERPQYFSGDGKSGKIQTVCFEGVLTINDAPALIDLVQQGIGPAKSMGCGLLSLAPL,5.96 ± 0.57 h,–,–,–,–,1.61 h,–,–,–,–,–,–
MSQPITRENFDEWMIPVYAPAPFIPVRGEGSRLWDQQGKEYIDFAGGIAVNALGHAHPELREALNEQASKFWHTGNGYTNEPVLRLAKKLIDATFADRVFFCNSGAEANEAALKLARKFAHDRYGSHKSGIVAFKNAFHGRTLFTVSAGGQPAYSQDFAPLPADIRHAAYNDINSASALIDDSTCAVIVEPIQGEGGVVPASNAFLQGLRELCNRHNALLIFDEVQTGVGRTGELYAYMHYGVTPDLLTTAKALGGGFPVGALLATEECARVMTVGTHGTTYGGNPLASAVAGKVLELINTPEMLNGVKQRHDWFVERLNTINHRYGLFSEVRGLGLLIGCVLNADYAGQAKQISQEAAKAGVMVLIAGGNVVRFAPALNVSEEEVTTGLDRFAAACEHFVSRGSS,3.59 ± 0.43 h,3.17 ± 0.87 h,2.47 ± 0.25 h,2.97 ± 0.5 h,2.79 ± 0.15 h,3.106 ± 0.012 h,4.44 ± 0.17 h,7.4513 ± 0.0042 h,2.67 ± 0.12 h,3.532 ± 0.018 h,5.09 ± 0.52 h,9.766 ± 0.073 h
